Experimental data: US20220251152A1, “COMPOSITIONS AND METHODS FOR SELECTIVE PROTEIN DEGRADATION” (Novartis AG, priority 2019, published 2022)

Tested on: CAR19 fused to HilD tag and/or FurON
Experiment: Flow cytometry of surface CAR expression on JNL cells, 10 μM lenalidomide and/or bazedoxifene 24 hours
Format: cell-based, human
Settings: 10 μM lenalidomide for 24 hours
Source text: Next, the surface expression of CAR19 on stably transduced JNL cells was examined by flow cytometry. […] On Day 2, cells were harvested, stained using biotinylated-protein L (Genscript, M00097) followed by PE conjugated streptavidin (Jackson Lab, 016-110-084), and subjected to flow cytometry analysis using Fortessa instrument.

B1: construct 771: signal peptide, CAR19, the HilD tag, and a V5 (protein)
chain: MALPVTALLLPLALLLHAARPEIVMTQSPATLSLSPGERATLSCRASQDISKYLNWYQQKPGQAPRLLIYHTSRLHSGIPARFSGSGSGTDYTLTISSLQPEDFAVYFCQQGNTLPYTFGQGTKLEIKGGGGSGGGGSGGGGSQVQLQESGPGLVKPSETLSLTCTVSGVSLPDYGVSWIRQPPGKGLEWIGVIWGSETTYYQSSLKSRVTISKDNSKNQVSLKLSSVTAADTAVYYCAKHYYYGGSYAMDYWGQGTLVTVSSTTTPAPRPPTPAPTIASQPLSLRPEACRPAAGGAVHTRGLDFACDIYIWAPLAGTCGVLLLSLVITLYCKRGRKKLLYIFKQPFMRPVQTTQEEDGCSCRFPEEEEGGCELRVKFSRSADAPAYQQGQNQLYNELNLGRREEYDVLDKRRGRDPEMGGKPRRKNPQEGLYNELQKDKMAEAYSEIGMKGERRRGKGHDGLYQGLSTATKDTYDALHMQALPPRMHKRSHTGERPFQCNQCGASFTQKGNLLRHIKLHTGEKPFKCHLCNTASAEARHIKAEMGGKPIPNPLLGLDST
Q: For B1, which “effect of lenalidomide on surface CAR expression of the construct” value (shortened to “effect of lenalidomide”) is on record?
A: significantly reduced surface CAR expression

B2: construct 6761: signal peptide, CAR19, a 16KGS linker, the HilD tag, and a V5 (protein)
chain: MALPVTALLLPLALLLHAARPEIVMTQSPATLSLSPGERATLSCRASQDISKYLNWYQQKPGQAPRLLIYHTSRLHSGIPARFSGSGSGTDYTLTISSLQPEDFAVYFCQQGNTLPYTFGQGTKLEIKGGGGSGGGGSGGGGSQVQLQESGPGLVKPSETLSLTCTVSGVSLPDYGVSWIRQPPGKGLEWIGVIWGSETTYYQSSLKSRVTISKDNSKNQVSLKLSSVTAADTAVYYCAKHYYYGGSYAMDYWGQGTLVTVSSTTTPAPRPPTPAPTIASQPLSLRPEACRPAAGGAVHTRGLDFACDIYIWAPLAGTCGVLLLSLVITLYCKRGRKKLLYIFKQPFMRPVQTTQEEDGCSCRFPEEEEGGCELRVKFSRSADAPAYQQGQNQLYNELNLGRREEYDVLDKRRGRDPEMGGKPRRKNPQEGLYNELQKDKMAEAYSEIGMKGERRRGKGHDGLYQGLSTATKDTYDALHMQALPPRKGGGSKGGGTKGGGSKMHKRSHTGERPFQCNQCGASFTQKGNLLRHIKLHTGEKPFKCHLCNTASAEARHIKAEMGGKPIPNPLLGLDST
Q: With B2 as the molecule, how does the “effect of lenalidomide” value read?
A: significantly reduced surface CAR expression

B3: construct 769: signal peptide, CAR19, a 16GS linker, and the HilD tag (protein)
chain: EIVMTQSPATLSLSPGERATLSCRASQDISKYLNWYQQKPGQAPRLLIYHTSRLHSGIPARFSGSGSGTDYTLTISSLQPEDFAVYFCQQGNTLPYTFGQGTKLEIKGGGGSGGGGSGGGGSQVQLQESGPGLVKPSETLSLTCTVSGVSLPDYGVSWIRQPPGKGLEWIGVIWGSETTYYQSSLKSRVTISKDNSKNQVSLKLSSVTAADTAVYYCAKHYYYGGSYAMDYWGQGTLVTVSSTTTPAPRPPTPAPTIASQPLSLRPEACRPAAGGAVHTRGLDFACDIYIWAPLAGTCGVLLLSLVITLYCKRGRKKLLYIFKQPFMRPVQTTQEEDGCSCRFPEEEEGGCELRVKFSRSADAPAYQQGQNQLYNELNLGRREEYDVLDKRRGRDPEMGGKPRRKNPQEGLYNELQKDKMAEAYSEIGMKGERRRGKGHDGLYQGLSTATKDTYDALHMQALPPRGGGGSGGGGTGGGGSGMHKRSHTGERPFQCNQCGASFTQKGNLLRHIKLHTGEKPFKCHLCNTASAEARHIKAEMG
Q: B3 was tested. Which “effect of lenalidomide” value did it give?
A: significantly reduced surface CAR expression
